Publication PMC10699790 (Science Advances, 2023)

Experiments:
HA-Halo-mGluR2 = HA-Halo-mGluR2 (rat, UniProt P31421 19-872, Halo tag labeled with CA-SS-Alexa-488); experiment: single-molecule pulldown
HA-Halo-mGluR8 = HA-Halo-mGluR8 (human, UniProt O00222 34-908, Halo tag labeled with CA-SS-Alexa-488); experiment: single-molecule pulldown
Sequence of HA-Halo-mGluR8 (O00222 34-908): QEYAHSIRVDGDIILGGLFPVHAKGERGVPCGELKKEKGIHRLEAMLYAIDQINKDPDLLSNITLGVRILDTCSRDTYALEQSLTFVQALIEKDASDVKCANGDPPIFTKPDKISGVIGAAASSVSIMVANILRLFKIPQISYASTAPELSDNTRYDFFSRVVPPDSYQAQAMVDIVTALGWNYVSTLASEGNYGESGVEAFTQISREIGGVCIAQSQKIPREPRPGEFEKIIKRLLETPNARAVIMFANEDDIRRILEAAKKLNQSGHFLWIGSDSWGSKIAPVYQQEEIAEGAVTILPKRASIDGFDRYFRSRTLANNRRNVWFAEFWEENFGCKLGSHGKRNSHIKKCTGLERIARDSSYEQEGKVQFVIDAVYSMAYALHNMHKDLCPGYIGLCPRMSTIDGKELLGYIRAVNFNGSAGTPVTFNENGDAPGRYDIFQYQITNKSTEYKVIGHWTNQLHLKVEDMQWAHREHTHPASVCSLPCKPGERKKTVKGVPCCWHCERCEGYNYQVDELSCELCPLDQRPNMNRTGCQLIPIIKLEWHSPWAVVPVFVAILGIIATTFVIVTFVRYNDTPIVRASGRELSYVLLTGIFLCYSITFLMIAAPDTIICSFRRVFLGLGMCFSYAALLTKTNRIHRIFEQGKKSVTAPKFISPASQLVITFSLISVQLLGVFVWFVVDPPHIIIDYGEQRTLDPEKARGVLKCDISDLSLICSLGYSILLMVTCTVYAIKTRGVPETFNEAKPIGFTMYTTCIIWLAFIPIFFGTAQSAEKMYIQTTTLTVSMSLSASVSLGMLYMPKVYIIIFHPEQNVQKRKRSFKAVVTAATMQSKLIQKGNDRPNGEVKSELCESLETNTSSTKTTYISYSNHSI

Sequence of HA-Halo-mGluR2 (P31421 19-872): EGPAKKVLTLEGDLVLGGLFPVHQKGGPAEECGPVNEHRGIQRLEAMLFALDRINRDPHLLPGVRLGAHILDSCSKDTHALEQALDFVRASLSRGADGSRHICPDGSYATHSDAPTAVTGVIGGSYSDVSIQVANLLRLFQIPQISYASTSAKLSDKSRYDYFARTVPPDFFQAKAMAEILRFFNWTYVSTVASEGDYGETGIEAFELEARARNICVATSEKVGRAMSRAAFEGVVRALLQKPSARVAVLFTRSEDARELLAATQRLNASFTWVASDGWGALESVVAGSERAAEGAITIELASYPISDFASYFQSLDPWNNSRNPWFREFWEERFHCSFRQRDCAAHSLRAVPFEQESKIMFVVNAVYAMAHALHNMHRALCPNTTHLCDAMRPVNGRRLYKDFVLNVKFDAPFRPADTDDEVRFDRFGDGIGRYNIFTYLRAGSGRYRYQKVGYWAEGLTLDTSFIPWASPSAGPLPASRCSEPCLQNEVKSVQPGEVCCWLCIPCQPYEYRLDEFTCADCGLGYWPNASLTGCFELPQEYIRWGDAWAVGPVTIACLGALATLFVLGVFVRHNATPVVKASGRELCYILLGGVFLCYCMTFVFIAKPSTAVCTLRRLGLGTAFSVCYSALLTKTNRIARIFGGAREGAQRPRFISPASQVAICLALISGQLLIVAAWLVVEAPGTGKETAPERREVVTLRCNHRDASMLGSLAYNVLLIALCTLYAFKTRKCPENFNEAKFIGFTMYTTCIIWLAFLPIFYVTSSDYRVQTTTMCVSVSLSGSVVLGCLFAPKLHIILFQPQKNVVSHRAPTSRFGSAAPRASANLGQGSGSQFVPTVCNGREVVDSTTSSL

B1: SNAP-mGluR3 without an HA tag (receptor)
chain: LGDHNFMRREIKIEGDLVLGGLFPINEKGTGTEECGRINEDRGIQRLEAMLFAIDEINKDNYLLPGVKLGVHILDTCSRDTYALEQSLEFVRASLTKVDEAEYMCPDGSYAIQENIPLLIAGVIGGSYSSVSIQVANLLRLFQIPQISYASTSAKLSDKSRYDYFARTVPPDFYQAKAMAEILRFFNWTYVSTVASEGDYGETGIEAFEQEARLRNICIATAEKVGRSNIRKSYDSVIRELLQKPNARVVVLFMRSDDSRELIAAANRVNASFTWVASDGWGAQESIVKGSEHVAYGAITLELASHPVRQFDRYFQSLNPYNNHRNPWFRDFWEQKFQCSLQNKRNHRQVCDKHLAIDSSNYEQESKIMFVVNAVYAMAHALHKMQRTLCPNTTKLCDAMKILDGKKLYKEYLLKINFTAPFNPNKGADSIVKFDTFGDGMGRYNVFNLQQTGGKYSYLKVGHWAETLSLDVDSIHWSRNSVPTSQCSDPCAPNEMKNMQPGDVCCWICIPCEPYEYLVDEFTCMDCGPGQWPTADLSGCYNLPEDYIKWEDAWAIGPVTIACLGFLCTCIVITVFIKHNNTPLVKASGRELCYILLFGVSLSYCMTFFFIAKPSPVICALRRLGLGTSFAICYSALLTKTNCIARIFDGVKNGAQRPKFISPSSQVFICLGLILVQIVMVSVWLILETPGTRRYTLPEKRETVILKCNVKDSSMLISLTYDVVLVILCTVYAFKTRKCPENFNEAKFIGFTMYTTCIIWLAFLPIFYVTSSDYRVQTTTMCISVSLSGFVVLGCLFAPKVHIVLFQPQKNVVTHRLHLNRFSVSGTATTYSQSSASTYVPTVCNGREVLDSTTSSL
modifications: SNAP tag labeled with SBG-JF646
stoichiometry N (HA-Halo-mGluR2): 1
stoichiometry N (HA-Halo-mGluR8): 1
